{"source": "paper PMC5472440", "key": {"[1]": {"test_system": "hIno80CTD (human)", "experiment": "MST", "conditions": "Hill coefficient 1.8 +/- 0.2, MST: 25 mM HEPES pH 8.0, 50 mM NaCl, 1 mM TCEP, 10% glycerol, 0.01% Tween-20, 0.1 mg/mL BSA, 25 C, EMSA: 25 mM HEPES pH 8.0, 50 mM NaCl, 0.5 mM …"}, "[2]": {"test_system": "hIno80CTD (human)", "experiment": "EMSA", "conditions": "Kd apparent, 50 nM DNA, MST: 25 mM HEPES pH 8.0, 50 mM NaCl, 1 mM TCEP, 10% glycerol, 0.01% Tween-20, 0.1 mg/mL BSA, 25 C, EMSA: 25 mM HEPES pH 8.0, 50 mM NaCl, 0.5 mM …"}}, "data": [{"substance": "50 bp duplex DNA", "values": [{"measurement": "K half", "setting": "[1]", "value": 1000, "unit": "nM"}, {"measurement": "Kd", "setting": "[2]", "value": 1000, "unit": "nM"}]}]}
